From patent publication US20250332297A1, “DLL3-SPECIFIC BINDING CONSTRUCTS AND THEIR USE IN RADIOTHERAPY” (MOLECULAR PARTNERS AG, priority 2024, published 2025)

Experiments:
hDLL3-MC38 tumors = experiment: Efficacy (tumor growth) in hDLL3-MC38 tumor model; format: in vivo, mouse; settings: tumor volume in mm^3, hDLL3-MC38
Procedure: To determine the efficacy of radio-labelled (Pb-212) DARPin (MAM160) conjugate in inhibiting the growth of tumors that express DLL3, different dose regimens (single or repeated dose) of the conjugate were tested in a mouse tumor model (hDLL3-MC38).
The first injections were done 7 days after the xenografts. Animals were under observation daily and 3× per week tumors were measured by caliper. Animals were sacrificed when tumors reached 1000 mm^3 or if termination criteria were met. The data were expressed as average+/−SEM of tumor volume in mm^3.

NCI-H82 tumors = experiment: Efficacy (tumor growth) in NCI-H82 tumor model; format: in vivo, mouse; settings: for Mean Diff.: Dunnett's multiple comparisons test, tumor volume in mm^3, NCI-H82, R2G2 mice
Procedure: To determine the efficacy of radio-labelled (Pb-212) DARPin (MAM279) conjugate in inhibiting the growth of tumors that express DLL3, different dose regimens (single or repeated dose) of the conjugate were tested in a relevant mouse tumor model (NCI-H82).
Animals were under observation daily and 3× per week tumors were measured by caliper. Animals were sacrificed when tumors reached 1500 to 2000 mm^3 or if termination criteria were met. The data were expressed as average+/−SEM of tumor volume in mm^3.
To determine the efficacy of more frequent repeat-dosing of radio-labelled (Pb-212) DARPin (MAM279) conjugate in inhibiting the growth of tumors that express DLL3, a weekly repeat-dosing regimen of the conjugate was tested in a relevant mouse tumor model (NCI-H82).
Corresponding injections of buffer only were done as control. The first weekly injection of radio-labeled molecules was done 14 days after xenografting the NCI-H82 cells. Animals were under observation daily and 3× per week tumors were measured by caliper. Animals were sacrificed when tumors reached 1500 to 2000 mm^3 or if termination criteria were met. The data were expressed as average+/−SEM of tumor volume in mm^3. Results are shown in FIGS. 20A to 20D and Table 23.

[1] = target: T1, human DLL3 and human serum albumin (Homo sapiens, UniProt P02768+Q9NYJ7); experiment: SPR simultaneous binding to DLL3 and serum albumin; settings: immobilized hDLL3-ECD, 150 nM conjugate then 1000 nM HSA
T1 construct: Biotinylated recombinant human DLL3-ECD was immobilized
Procedure: Studies were performed to determine whether a two domain (2D) ankyrin repeat protein conjugate, as described herein, can bind simultaneously to DLL3 and serum albumin. The specific conjugate tested was MAM279 (SEQ ID NO: 11), with a Glycine-Serine (GS) at its N-terminal end and a tag (SEQ ID NO: 10) at its C-terminal end (resulting in GS-MAM279-tag (SEQ ID NO: 15)), conjugated to the chelator DOTAM as described in Example 3.
An SPR assay was used to assess the concurrent binding of DARPin (MAM279) conjugate to both human DLL3 and human serum albumin (HSA). […] A streptavidin SAHC200M (Xantec) sensor chip was conditioned according to the manufacturer's protocol. Biotinylated recombinant human DLL3-ECD was immobilized to a coating density of 1350-1470 RU. A single injection of 150 nM DARPin conjugate was performed, with an association time of 240 s using a constant flow of 100 μl/min. After a lag time of ˜300 seconds, HSA was injected at 1000 nM with an association time of 240 seconds and a dissociation time of 900 seconds using a constant flow of 100 μl/min. Control lanes were used where only one of the analytes or only PBST was injected. The signal was double referenced (interspot and buffer injection). The figure (FIG. 17) was prepared with GraphPad Prism 10.2.3.

mouse DLL3-ECD = target: T2, mouse DLL3-ECD (Mus musculus, UniProt O88516); experiment: SPR, immobilized DARPin, binding of mouse DLL3-ECD (Example 17); settings: immobilized biotinylated DARPin, DLL3-ECD as analyte, 1:1 Langmuir, Table 20
T2 construct: the extracellular domain of DLL3 (DLL3-ECD) from human, cynomolgus monkey, mouse and pig
T2 sequence (O88516 33-490 limits assumed): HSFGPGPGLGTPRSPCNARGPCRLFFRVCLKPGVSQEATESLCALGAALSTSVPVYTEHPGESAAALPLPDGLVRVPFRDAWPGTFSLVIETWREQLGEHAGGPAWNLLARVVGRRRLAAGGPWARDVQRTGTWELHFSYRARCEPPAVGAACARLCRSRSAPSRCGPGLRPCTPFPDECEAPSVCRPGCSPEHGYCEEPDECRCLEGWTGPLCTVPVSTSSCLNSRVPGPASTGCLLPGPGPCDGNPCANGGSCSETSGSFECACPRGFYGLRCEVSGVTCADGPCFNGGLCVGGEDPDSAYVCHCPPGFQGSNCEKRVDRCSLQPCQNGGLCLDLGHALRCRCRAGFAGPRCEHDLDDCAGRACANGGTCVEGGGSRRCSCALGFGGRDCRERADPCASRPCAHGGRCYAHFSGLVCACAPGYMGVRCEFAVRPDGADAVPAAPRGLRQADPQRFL
Procedure: Kinetic binding parameters and binding affinities of two domain (2D) ankyrin repeat protein MAM279 and single domain (1 D) ankyrin repeat protein MAM093 to DLL3 from different species were determined. The DLL3-specific ankyrin repeat domain of MAM093 is identical to the DLL3-specific ankyrin repeat domain comprised in MAM279.
SPR multi-trace analyses were performed similarly as described in Examples 1 and 11. Here, the binding kinetics of immobilized DARPin proteins to the extracellular domain of DLL3 (DLL3-ECD) from human, cynomolgus monkey, mouse and pig were determined. Various concentrations of recombinant DLL3-ECD starting from 500 nM were applied to immobilized biotinylated 2D DARPin (MAM279; SEQ ID NO: 11) or 1 D DARPin (MAM093; SEQ ID NO: 1) (both with a Glycine-Serine (GS) at the N-terminal end) for on-rate and off-rate measurements.
Streptavidin SAHC200M (Xantec) SPR chip was conditioned according to the manufacturer's protocol. Biotinylated DARPins were immobilized to a coating density of 27 resonance units (RU) for 1D DARPin and 25 RU for 2D DARPin. All analytes (3-fold dilution ranging from 500-6.17 nM) were injected in succession for 240 s and dissociation was recorded for 10800 s using a constant flow of 100 μl/min.

B1: Rova: Rova antibody, DLL3-binding benchmark antibody used as positive control and comparison (antibody, chains of the INN, looked up, V domains shown)
VH: QVQLVQSGAEVKKPGASVKVSCKASGYTFTNYGMNWVRQAPGQGLEWMGWINTYTGEPTYADDFKGRVTMTTDTSTSTAYMELRSLRSDDTAVYYCARIGDSSPSDYWGQGTLVTVSS
VL: EIVMTQSPATLSVSPGERATLSCKASQSVSNDVVWYQQKPGQAPRLLIYYASNRYTGIPARFSGSGSGTEFTLTISSLQSEDFAVYYCQQDYTSPWTFGQGTKLEIK
B1 was tested, and the “Mean Diff.” value (hDLL3-MC38 tumors; Dunnett's multiple comparisons test, Buffer vs. 3 × 10μCi (1 week apart)) was 251.6 and the “Mean Diff.” value (hDLL3-MC38 tumors; Tukey's multiple comparisons test, Buffer vs. 3 × 10μCi) was 251.6.

B2: MAM279 conjugate: SEQ ID NO: 15 conjugated to DOTAM-maleimide, labelled with Pb-212 (natural lead in PK studies) (conjugate)
chain: GSDLGKKLLEAARAGQDDEVRELLKAGADVNAKDYFSHTPLHLAARNGHLKIVEVLLKAGADVNAKDFAGKTPLHLAADAGHLEIVEVLLKAGADVNAQDIFGKTPADIAADAGHEDIAEVLQKAAGSPTPTPTTPTPTPTTPTPTPTGSDLGKKLLAAAAQGQDDEVRELLKAGANVNAKDLFGYTPLHLAAWRGHLEIVEVLLKAGADVNAKDAAGETPLHLAAWFGHLEIVEVLLKAGADVNAQDLQGKTPADLAAKEGHEDIAEVLQKAAGSGSC
modifications: DOTAM-maleimide, Pb-212 label; Ankyrin repeat protein with tag (GS-MAM279-tag)
For B2, the “Mean Diff.” value (NCI-H82 tumors; Buffer only vs. (4 × 10μCi, 1 wk)) was 731.9, the “Mean Diff.” value (NCI-H82 tumors; Buffer vs. conjugate (1 × 10μCi)) was 140.6 and the “Mean Diff.” value (NCI-H82 tumors; Buffer vs. conjugate (4 × 10μCi, injections 2 weeks apart)) was 429.7. For the same molecule, the “efficacy in inhibiting the growth of NCI-H82 tumors” value (NCI-H82 tumors; Pb-212 labelled conjugate, 1×10 μCi or 4×10 μCi (2 weeks apart), in words) was “good efficacy”, the “potency versus benchmark antibody (Rova) conjugate” value (NCI-H82 tumors; both at 4×10 μCi, NCI-H82 tumors, in words) was “more potent than the benchmark antibody (Rova) conjugate” and the complete tumor regression (NCI-H82 tumors; four times weekly at 10 μCi, NCI-H82, day 63 post-tumor cell xenograft) was “about 70 % of mice”. For the same molecule, the “efficacy in inhibiting the growth of NCI-H82 tumors” value (NCI-H82 tumors; injected four times weekly at 10 μCi, in words) was “strong and statistically significant efficacy”.

B3: MAM279-DOTAM: GS-MAM279-tag (SEQ ID NO: 15) conjugated to the chelator DOTAM via C-terminal tag and maleimide connector, no radionuclide (conjugate)
chain: GSDLGKKLLEAARAGQDDEVRELLKAGADVNAKDYFSHTPLHLAARNGHLKIVEVLLKAGADVNAKDFAGKTPLHLAADAGHLEIVEVLLKAGADVNAQDIFGKTPADIAADAGHEDIAEVLQKAAGSPTPTPTTPTPTPTTPTPTPTGSDLGKKLLAAAAQGQDDEVRELLKAGANVNAKDLFGYTPLHLAAWRGHLEIVEVLLKAGADVNAKDAAGETPLHLAAWFGHLEIVEVLLKAGADVNAQDLQGKTPADLAAKEGHEDIAEVLQKAAGSGSC
modifications: DOTAM chelator via maleimide on C-terminal tag; Ankyrin repeat protein with tag (GS-MAM279-tag)
For B3, the “simultaneous binding to DLL3 and serum albumin” value [1] was “can bind simultaneously to human DLL3 and human serum albumin”.

B4: MAM279: Two domain (2D) ankyrin repeat protein: serum albumin-specific domain (SEQ ID NO: 7), PT linker, DLL3-specific domain of MAM093 (protein)
chain: DLGKKLLEAARAGQDDEVRELLKAGADVNAKDYFSHTPLHLAARNGHLKIVEVLLKAGADVNAKDFAGKTPLHLAADAGHLEIVEVLLKAGADVNAQDIFGKTPADIAADAGHEDIAEVLQKAAGSPTPTPTTPTPTPTTPTPTPTGSDLGKKLLAAAAQGQDDEVRELLKAGANVNAKDLFGYTPLHLAAWRGHLEIVEVLLKAGADVNAKDAAGETPLHLAAWFGHLEIVEVLLKAGADVNAQDLQGKTPADLAAKEGHEDIAEVLQKAA
modifications: Ankyrin repeat protein (MAM279)
In the case of B4, the Kd (mouse DLL3-ECD) is reported as 0.0839 µM, the “Koff mouse DLL3-ECD” value (mouse DLL3-ECD) is reported as 0.00282 s⁻¹ and the “Kon mouse DLL3-ECD” value (mouse DLL3-ECD) is reported as 33700 M⁻¹ s⁻¹.
